From patent publication US20220380463A1 (Adimab, published 2022) come the findings set out here.

Usually koff stands for the first-order rate constant of dissociation. Read a high koff as a short-lived complex.

Assay [1] deals with T1, Cynomolgus CD3εδ Fc heterodimer (Cy CD3ε Fc / CD3δ Fc-HIS) (cynomolgus, UniProt Q95LI8 22-100).
T1 chain 1: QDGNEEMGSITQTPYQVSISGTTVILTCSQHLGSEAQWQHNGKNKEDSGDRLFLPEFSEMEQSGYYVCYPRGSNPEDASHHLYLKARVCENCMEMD
T1 chain 2: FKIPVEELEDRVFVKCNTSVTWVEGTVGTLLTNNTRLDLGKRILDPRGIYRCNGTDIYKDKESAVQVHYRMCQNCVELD
The experiment in a line: BLI (Octet), IgG on AHC sensor, pH 6.0. In general terms: In BLI a coated tip is dipped into the sample, and binding shifts an interference pattern.

For assay [2], the target named is T2, human CD3 on CD3+ Jurkat cells (human, UniProt P07766 23-207).
T2 construct: whole, on cells; Native CD3 complex on cells; the other CD3 chains are not specified for this assay; also called Human CD3+ Jurkat
As to the kind of experiment: flow cytometry, 100 nM IgG on CD3+ Jurkat cells, pH 6.0. The method, then: (§1) Specificity of the anti-CD3 antibodies for human CD3+ Jurkat cells compared to CHO-S cells at pH 6.0 and 7.4 was determined using a FACS cell binding assay. Briefly, CD3+ human Jurkat cells and CHO-S cells were thawed and washed with cold PBSF buffer, pH 7.4 (PBS+0.1% BSA, pH 7.4). About 200,000 cells were aliquoted per well of a 96-well plate and pelleted by centrifugation (5 minutes at 500×g). The cells were washed with either PBSF pH 7.4 or PBSF pH 6.0 (PBS+0.1% BSA, pH 6.0), and then resuspended in 100 ul in either PBSF pH 7.4 or PBSF pH 6.0 with IgG antibody produced in yeast (100 nM). The mixture (cells+antibody) was incubated for 20 minutes on ice, then washed twice with either PBSF pH 7.4 or PBSF pH 6.0. Cells were resuspended in 50 ul of propidium iodide (1:500 dilution) and anti-human IgG-RPE (1:100 dilution) prepared in either PBSF pH 7.4 or PBSF pH 6.0, then incubated for 20 minutes on ice in the dark before cells were washed twice with either PBSF pH 7.4 or PBSF pH 6.0. Binding was analyzed on FACS Canto II.
(§2) Cell binding assays. CD3+ human Jurkat cells (ATCC) and CHO-S cells (Invitrogen/ThermoFisher) were thawed and washed with cold PBSF buffer, pH 7.4 (PBS+0.1% BSA, pH 7.4). About 200,000 cells were aliquoted per well of a 96-well plate (FACS Assay Plate VWR BD 353263) and pelleted by centrifugation (5 minutes at 500×g). The cells were washed with either PBSF pH 7.4 or PBSF pH 6.0 (PBS+0.1% BSA, pH 6.0), and then resuspended in 100 ul in either PBSF pH 7.4 or PBSF pH 6.0 with IgG antibody (100 nM) produced in yeast as described above. The mixture (cells+antibody) was incubated for 20 minutes on ice, then washed twice with either PBSF pH 7.4 or PBSF pH 6.0. Cells were resuspended in 50 ul of propidium iodide (Roche; 1:500 dilution) and anti-human IgG-RPE (Southern Biotech; 1:100 dilution) prepared in either PBSF pH 7.4 or PBSF pH 6.0, then incubated for 20 minutes on ice in the dark before cells were washed twice with either PBSF pH 7.4 or PBSF pH 6.0. Binding was analyzed on FACS Canto II.
(In general: Flow cytometry measures light scatter and fluorescence of single cells or particles in a stream.)

The target in assay [3] is T2, human CD3 on CD3+ Jurkat cells. The experiment in a line: flow cytometry, 100 nM IgG on CD3+ Jurkat cells, pH 7.4. The method, then:
as §1, §2

Assay [4] has the same target. The experiment in a line: flow cytometry on CD3+ Jurkat cells, ratio of MFI at pH 6.0 to pH 7.4. As for the experimental part:
as §1, §2

T2 sequence (P07766 23-207): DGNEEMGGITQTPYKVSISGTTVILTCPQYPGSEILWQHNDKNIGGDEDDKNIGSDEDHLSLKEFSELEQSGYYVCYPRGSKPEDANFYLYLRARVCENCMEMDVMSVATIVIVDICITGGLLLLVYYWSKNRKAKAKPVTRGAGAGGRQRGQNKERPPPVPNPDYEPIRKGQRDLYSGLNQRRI

B1: SAD10319_P06_E09 (ADI-57427) (antibody, V domains shown)
VH: QVQLVQSGAEVKKPGASVKVSCKASGYTFTAYDMHWVRQAPGQRLEWMGWINPDTGATVYSQKFQGRVTITRDTSASTAYMELSSLRSEDTAVYYCARDAYGRYFYDVWGQGTLVTVSS
VL: DIVMTQSPDSLAVSLGERATINCKSSQSLLNARTGKNYLAWYQQKPGQPPKLLIYWASTRESGVPDRFSGSGSGTDFTLTISSLQAEDVAVYYCKQSYSRRTFGGGTKVEIK
notes: IgG; also called Ab156
B1 registered a koff in assay [1] of 0.0122 s⁻¹.

B2: SAD10319_P06_F07 (ADI-57429) (antibody, V domains shown)
VH: QVQLVQSGAEVKKPGASVKVSCKASGYTFESYDMHWVRQAPGQPLEWMGWIDAGTGATTYSQKFQGRVTITRDTSASTAYMELSSLRSEDTAVYYCARDAYHHYFYDVWGQGTLVTVSS
VL: DIVMTQSPDSLAVSLGERATINCKSSQSLLNARTGKNYLAWYQQKPGQPPKLLIYWASTRESGVPDRFSGSGSGTDFTLTISSLQAEDVAVYYCKQSYSRRTFGGGTKVEIK
notes: IgG; also called Ab159
As for B2, the koff in assay [1] was 0.0251 s⁻¹.

B3: SAD10319_P06_H08 (ADI-57434) (antibody, V domains shown)
VH: QVQLVQSGAEVKKPGASVKVSCKASGYTFESYDMHWVRQAPGQTLEWMGWIDAGTGATTYSQKFQGRVTITRDTSASTAYMELSSLRSEDTAVYYCARDAYHHYFYDVWGQGTLVTVSS
VL: DIVMTQSPDSLAVSLGERATINCKSSQSLLNARTGKNYLAWYQQKPGQPPKLLIYWASTRESGVPDRFSGSGSGTDFTLTISSLQAEDVAVYYCKQSYSRRTFGGGTKVEIK
notes: IgG; also called Ab164
For the molecule B3, the koff in assay [1] is 0.0231 s⁻¹.

B4: SAD10319_P06_H10 (ADI-57435) (antibody, V domains shown)
VH: QVQLVQSGAEVKKPGASVKVSCKASGYTFESYDMHWVRQAPGPRLEWMGWIDAGTGNTKYSQKFQGRVTITADESTSTAYMELSSLRSEDTAVYYCARDHYGHYFYDVWGQGTLVTVSS
VL: DIVMTQSPDSLAVSLGERATINCKSSQSLLNARTGKNYLAWYQQKPGQPPKLLIYWASTRESGVPDRFSGSGSGTDFTLTISSLQAEDVAVYYCKQSYSRRTFGGGTKVEIK
notes: IgG; also called Ab165
In assay [1], B4 displayed a koff of 0.0267 s⁻¹.

B5: SAD10319_P06_H07 (ADI-57433) (antibody, V domains shown)
VH: QVQLVQSGAEVKKPGASVKVSCKASGYTFVSYNMHWVRQAPGQRLEWMGSINAGDANTKYSQKFQGRVTITRDTSASTAYMELSSLRSEDTAVYYCARDHYGHYFYDVWGQGTLVTVSS
VL: DIVMTQSPDSLAVSLGERATINCKSSQSLLNARTGKNYLAWYQQKPGQPPKLLIYWASTRESGVPDRFSGSGSGTDFTLTISSLQAEDVAVYYCKQSYSRRTFGGGTKVEIK
notes: IgG; also called Ab163
B5 came in with a koff in assay [1] of 0.00901 s⁻¹.

B6: SAD10319_P06_E10 (ADI-57428) (antibody, V domains shown)
VH: QVQLVQSGAEVKKPGASVKVSCKASGYTFTQYDMHWVRQAPGQTLEWMGDINAGTGVTVYSQKFQGRVTITRDTSASTAYMELSSLRSEDTAVYYCARDAYGRYFYDVWGQGTLVTVSS
VL: DIVMTQSPDSLAVSLGERATINCKSSQSLLNARTGKNYLAWYQQKPGQPPKLLIYWASTRESGVPDRFSGSGSGTDFTLTISSLQAEDVAVYYCKQSYSRRTFGGGTKVEIK
notes: IgG; also called Ab157
B6 yielded a koff in assay [1] of 0.00575 s⁻¹.

B7: LAD5224_P03_A01 (ADI-26906) (antibody, V domains shown)
VH: QVQLVQSGAEVKKPGASVKVSCKASGFNIKDYYMHWVRQAPGQRLEWMGWIDLENANTIYDAKFQGRVTITRDTSASTAYMELSSLRSEDTAVYYCARDAYGRYFYDVWGQGTLVTVSS
VL: DIVMTQSPDSLAVSLGERATINCKSSQSLLNARTGKNYLAWYQQKPGQPPKLLIYWASTRESGVPDRFSGSGSGTDFTLTISSLQAEDVAVYYCKQSYSRRTFGGGTKVEIK
notes: IgG; also called Ab1; parent clone
For B7, the “MFI pH 6.0” value in assay [2] worked out at 6040 MFI. In addition, in assay [3], the “MFI pH 7.4” value was determined as 5270 MFI. The “MFI pH 6.0/MFI pH 7.4” value in assay [4] worked out at 1.1.

B8: LAD9966_P01_A08 (ADI-57445) (antibody, V domains shown)
VH: QVQLVQSGAEVKKPGASVKVSCKASGFNIKDYYMHWVRQAPGQRLEWMGWIDLENANTIYDAKFQGRVTITRDTSASTAYMELSSLRSEDTAVYYCARDAYGRYFYDVWGQGTLVTVSS
VL: DIVMTQSPDSLAVSLGERATINCKSSQSLLNARTGKNHLAWYQQKPGQPPKLLIYWASTRESGVPDRFSGSGSGTDFTLTISSLQAEDVAVYYCKQSYSRRTFGGGTKVEIK
notes: IgG; also called Ab176
In turn, B8 showed a koff in assay [1] of 0.0035 s⁻¹.

B9: SAD10319_P06_F10 (ADI-57430) (antibody, V domains shown)
VH: QVQLVQSGAEVKKPGASVKVSCKASGYTFVSYDMHWVRQAPGPSLEWMGWIDPNTGATVYSQKFQGRVTITRDTSASTAYMELSSLRSEDTAVYYCARDHYGHYFYDVWGQGTLVTVSS
VL: DIVMTQSPDSLAVSLGERATINCKSSQSLLNARTGKNYLAWYQQKPGQPPKLLIYWASTRESGVPDRFSGSGSGTDFTLTISSLQAEDVAVYYCKQSYSRRTFGGGTKVEIK
notes: IgG; also called Ab160
B9 gave a koff in assay [1] of 0.00663 s⁻¹.

B10: LAD9956_P01_C03 (ADI-57440) (antibody, V domains shown)
VH: QVQLVQSGAEVKKPGASVKVSCKASGFNIKDYYMHWVRQAPGQRLEWMGWIDLENANTIYDAKFQGRVTITRDTSASTAYMELSSLRSEDTAVYYCARDAYGRYFYDVWGQGTLVTVSS
VL: DIVMTQSPDSLAVSLGERATINCKSSQSLLNAHTHKNYLAWYQQKPGQPPKLLIYWASTRESGVPDRFSGSGSGTDFTLTISSLQAEDVAVYYCKQSYSRRTFGGGTKVEIK
notes: IgG; also called Ab171
B10 came in with a koff in assay [1] of 0.000913 s⁻¹.

B11: SAD10319_P06_G11 (ADI-57432) (antibody, V domains shown)
VH: QVQLVQSGAEVKKPGASVKVSCKASGYTFTDYDMHWVRQAPGQRLEWMGWINAGDAATVYSQKFQGRVTITRDTSASTAYMELSSLRSEDTAVYYCARDAYGHYFYDHWGQGTLVTVSS
VL: DIVMTQSPDSLAVSLGERATINCKSSQSLLNARTGKNYLAWYQQKPGQPPKLLIYWASTRESGVPDRFSGSGSGTDFTLTISSLQAEDVAVYYCKQSYSRRTFGGGTKVEIK
notes: IgG; also called Ab162
Molecule B11 displayed a koff in assay [1] of 0.00924 s⁻¹.

B12: SAD10319_P06_G09 (ADI-57431) (antibody, V domains shown)
VH: QVQLVQSGAEVKKPGASVKVSCKASGYTFESYDMHWVRQAPGPRLEWMGWIDAGTGATTYSQKFQGRVTITRDTSASTAYMELSSLRSEDTAVYYCARDAYHHYFYDVWGQGTLVTVSS
VL: DIVMTQSPDSLAVSLGERATINCKSSQSLLNARTGKNYLAWYQQKPGQPPKLLIYWASTRESGVPDRFSGSGSGTDFTLTISSLQAEDVAVYYCKQSYSRRTFGGGTKVEIK
notes: IgG; also called Ab161
B12 yielded a koff in assay [1] of 0.00258 s⁻¹.

B13: LAD9963_P01_E06 (ADI-57443) (antibody, V domains shown)
VH: QVQLVQSGAEVKKPGASVKVSCKASGFNIKDYYMHWVRQAPGQRLEWMGWIDLENANTIYDAKFQGRVTITRDTSASTAYMELSSLRSEDTAVYYCARDAYGRYFYDVWGQGTLVTVSS
VL: DIVMTQSPDSLAVSLGERATINCKSSQSLLNAHTGKNYLAWYQQKPGQPPKLLIYWASTRESGVPDRFSGSGSGTDFTLTISSLQAEDVAVYYCKQSYSRRTFGGGTKVEIK
Regarding B13, in assay [1], the off-rate (koff) came to 0.000866 s⁻¹.

B14: SAD10319_P06_H11 (ADI-57436) (antibody, V domains shown)
VH: QVQLVQSGAEVKKPGASVKVSCKASGYTFTDYDMHWVRQAPGHRLEWMGWINAGDAATVYSQKFQGRVTITRDTSASTAYMELSSLRSEDTAVYYCARDAYGHYFYDHWGQGTLVTVSS
VL: DIVMTQSPDSLAVSLGERATINCKSSQSLLNARTGKNYLAWYQQKPGQPPKLLIYWASTRESGVPDRFSGSGSGTDFTLTISSLQAEDVAVYYCKQSYSRRTFGGGTKVEIK
notes: IgG; also called Ab166
For B14, the koff in assay [1] is 0.0285 s⁻¹.

B15: LAD9965_P01_H07 (ADI-48666) (antibody, V domains shown)
VH: QVQLVQSGAEVKKPGASVKVSCKASGFNIKDYYMHWVRQAPGQRLEWMGWIDLENANTIYDAKFQGRVTITRDTSASTAYMELSSLRSEDTAVYYCARDAYGRYFYDVWGQGTLVTVSS
VL: DIVMTQSPDSLAVSLGERATINCKSSQSLLNARTGHNYLAWYQQKPGQPPKLLIYWASTRESGVPDRFSGSGSGTDFTLTISSLQAEDVAVYYCKQSYSRRTFGGGTKVEIK
notes: IgG; also called Ab177
As for B15, the “MFI pH 6.0” value in assay [2] was 5700 MFI. Also, the “MFI pH 7.4” value in assay [3] was found to be 4800 MFI. In assay [4], the “MFI pH 6.0/MFI pH 7.4” value was determined as 1.2.
